Results taken from patent publication US7871610B2, “Antibodies to Tie1 ectodomain” (Dyax Corp., priority 2003, dated 2011).

Experiments:
[1] = system: bFGF-induced angiogenesis; assay: […] plug assay, bFGF-induced angiogenesis in NMRI nu/nu mice; assay type: in vivo, mouse
Description: The germlined variant of the E3 IgG antibody was evaluated in an in vivo assay for angiogenesis induced by bFGF in […]™ plugs. Growth factor reduced […]™ (BD Biosciences, catalog # 354230) was supplemented with 80 ng/ml of bFGF (R&D Systems, catalog #234-FSE). The A2-SV or an IgG4 E3 antibody (10 μg/ml) or PBS was injected subcutaneously into the abdominal area of NMRI nu/nu mice (150 μl of Matrigel/plug).
In the first assay, two mice were injected with […]™ supplemented with bFGF and soluble VEGFR-1 (10 μg/ml) as a positive control for an angiogenic inhibitor. At day 7 post-implantation mice were anesthetized and perfused through heart with 4% paraformaldehyde (PFA) in phosphate buffered saline (PBS). […]™ plugs and a piece of liver were removed and embedded in paraffin. Sections were cut and stained with hematoxylin and eosin (H&E).
In a second assay, mice were treated as described above, and then anesthetized eight days post-implantation and injected with fluorescein-conjugated tomato (lycopersicon esculentum) lectin (100 μg in 200 μl of PBS; Vector, catalog #FL-1171) into the tail vein. After five min circulation the animals were perfused through the heart with 10 ml of PBS followed by 10 ml of 4% PFA in PBS. […]™ plugs and pieces of kidney and liver were removed and frozen in OCT (Tissue-Tek). Nuclei were visualized on sections by using […]® mounting medium containing DAPI (Vector) and analyzed under fluorescence microscopy.

[2] = system: HUVEC; assay: Tube formation assay with HUVEC in collagen gel; assay type: cell-based, human; conditions: collagen I gel; E3 active even at 10 ng/ml (tested 1 ng/ml to 10 μg/ml); E3b-IgG1 tested 1 pg/ml to 10 ng/ml
Description: Human Umbilical vein endothelial cells (HUVEC) were obtained by treating fresh human umbilical cord veins with Trypsin-EDTA (1×) (Gibco/Invitrogen) for 20-25 minutes at 37° C. The cells were cultured in a T-25 flask coated with attachment factor (AF), (Cascade Biologics) in RPMI 1640 medium supplemented with 10% FCS, 0.4% BBE, 1% 1-glutamin, 1% penicillin/streptomycin. Primary cultures were detached with warm Trypsin-EDTA and used when confluent at the second or third passage. The cells were maintained in a proliferative state by culturing them in a split ratio 1:2 at an approximate density of the monolayer of about 60-80%. […]
After 2 passages HUVECs were seeded in their culture medium (40.10^3/50 μl/well of a 96-well plate) on a collagen gel (50 μl of collagen I 1.5 mg/ml) prepared by mixing 7.5 volumes of 2 mg/ml collagen (Collagen R; Serva, Heidelberg, Germany), 1 volume of 10×MEM, 1.5 volume of NaHCO3 (15.6 mg/ml) and ˜1 volume of NaOH to adjust the pH to 7.4. […] The total length of the tube network on the culture surface was quantified at ×40 magnification by the METAVUE™ Software (Universal Imaging Corporation). Results from triplicate wells were expressed as mean vessel area per field ±SEM (relative units). […]
Germlined E3 and its parental antibody were evaluated in the tube formation assay in a collagen type-I matrix. […]

B1: E3: human anti-Tie1 antibody from Fab phage library; HC SEQ ID NO:114, LC SEQ ID NO:116 (antibody, V domains shown)
VH: EVQLLESGGGLVQPGGSLRLSCAASGFTFSMYGMVWVRQAPGKGLEWVSVISPSGGNTGYADSVKGRFTISRDNSKNTLYLQVNSLRAEDTAVYYCARAPRGYSYGYYYWGQGTLVTVSSASTKGPSVFPLAPSSKSTSGG
VL: DIQMTQSPLSLSASVGDRVTITCRASQGIGHYLAWYQQKPGKVPKLLIYTASTLQSGVPSRFSGSGSGTDFTLTINSLQPEDVATYYCQQFNSYPHTFGQGTRLDIK
modifications: Synthetically generated peptide
With B1 the “bFGF-induced angiogenesis in vivo” value ([1]; conclusion from the two experiments) was “can inhibit bFGF-induced angiogenesis in vivo”, the “vessel-like structures in MATRIGEL plugs (H&E staining)” value ([1]; first assay, day 7, bFGF 80 ng/ml, antibody 10 μg/ml in plug, E3 = germlined variant, IgG4) was “neither modification of the matrix nor organization of the cells” and the “fluorescein-lectin staining of MATRIGEL plugs” value ([1]; second assay, eight days post-implantation, antibody 10 μg/ml in plug) was “no staining could be detected”. The “tube formation by HUVECs” value [2] was “potent inhibitor of tube formation”.
